In paper PMC11919686, “Structural basis for Vipp1 membrane binding: from loose coats and carpets to ring and rod assemblies” (Nature Structural & Molecular Biology, 2024):
Positions count from the first letter of the chain named.

Key:
[1] = target: the molecule itself; test: cryo-EM structure; Vipp1 (α1–α6) with and without EPL membrane reconstitution; single-particle helical reconstruction of rods
[2] = target: the molecule itself; test: cryo-EM structure; urea-unfolded protein added to an EPL lipid film and refolded by dialysis against 10 mM Tris-HCl pH 8.0; single-particle helical reconstruction or rotational symmetry (tubes, stacked rings, rings)
[3] = target: the molecule itself; test: negative-staining EM; protein refolded in the absence of membranes; 2% uranyl acetate

B1: Vipp1 (α1–α6), truncation of helix α0 (aa 1–23) (domain or fragment, Synechocystis sp. PCC 6803, UniProt Q55707 24-267, looked up)
chain: DPEKVLEQAVIDMQEDLVQLRQAVARTIAEEKRTEQRLNQDTQEAKKWEDRAKLALTNGEENLAREALARKKSLTDTAAAYQTQLAQQRTMSENLRRNLAALEAKISEAKTKKNMLQARAKAAKANAELQQTLGGLGTSSATSAFERMENKVLDMEATSQAAGELAGFGIENQFAQLEASSGVEDELAALKASMAGGALPGTSAATPQLEAAPVDSSVPANNASQDDAVIDQELDDLRRRLNNL
notes: Vipp1 (sll0617) of Synechocystis sp; PCC 6803 without helix α0 (aa 1–23 truncated); The models were built from PDB 7O3W with aa 1–22 removed, whereas the construct lacks aa 1–23; Residues of the 3C site may remain at the C-terminus; also called Vipp1(α1-6); truncated Vipp1 lacking α0; not shown: His-tag, C-terminal, cleaved
B1: binds [1].

B2: Vesicle-inducing protein in plastids 1 (Vipp1), full length, Synechocystis sp. PCC 6803 (natural protein, UniProt Q55707 1-267, looked up)
chain: MGLFDRLGRVVRANLNDLVSKAEDPEKVLEQAVIDMQEDLVQLRQAVARTIAEEKRTEQRLNQDTQEAKKWEDRAKLALTNGEENLAREALARKKSLTDTAAAYQTQLAQQRTMSENLRRNLAALEAKISEAKTKKNMLQARAKAAKANAELQQTLGGLGTSSATSAFERMENKVLDMEATSQAAGELAGFGIENQFAQLEASSGVEDELAALKASMAGGALPGTSAATPQLEAAPVDSSVPANNASQDDAVIDQELDDLRRRLNNL
notes: Vipp1 (sll0617) of Synechocystis sp; PCC 6803, full length; The C-terminal His-tag was cut off with 3C protease; residues of the 3C site may remain at the C-terminus; The deposited models hold 215 residues only; also called IM30; WT; not shown: His-tag, C-terminal, cleaved
B2: binds [2].

B3: Vipp1 dL10Ala (substitution of aa 157–166 to alanine) (natural protein, Synechocystis sp. PCC 6803, UniProt Q55707 1-267, looked up)
chain: B2 chain with G157A, G158A, L159A, G160A, T161A, S162A, S163A, T165A, S166A
notes: Vipp1 (sll0617) of Synechocystis sp; PCC 6803 with the hinge 2 region (aa 157–166) replaced by ten alanines; The methods describe the denaturing purification and tag cleavage only for Vipp1 and Vipp1 (α1–α6); this mutant was probably handled in the same way; also called Vipp1dlA10; plasticity-restrained Vipp1 mutant; source: E. coli C41; reconstituted with EPL lipids or without membranes
B3: binds [2].

B4: Vipp1 dL10 (truncation of aa 157–166) (natural protein, Synechocystis sp. PCC 6803, UniProt Q55707 1-267, looked up)
chain: MGLFDRLGRVVRANLNDLVSKAEDPEKVLEQAVIDMQEDLVQLRQAVARTIAEEKRTEQRLNQDTQEAKKWEDRAKLALTNGEENLAREALARKKSLTDTAAAYQTQLAQQRTMSENLRRNLAALEAKISEAKTKKNMLQARAKAAKANAELQQTLAFERMENKVLDMEATSQAAGELAGFGIENQFAQLEASSGVEDELAALKASMAGGALPGTSAATPQLEAAPVDSSVPANNASQDDAVIDQELDDLRRRLNNL
notes: Vipp1 (sll0617) of Synechocystis sp; PCC 6803 with aa 157–166 (hinge 2) deleted; The methods describe the purification and tag cleavage only for Vipp1 and Vipp1 (α1–α6); source: E. coli C41
B4: binds [3].
